In article PMC4676636, “Aptamers Binding to c-Met Inhibiting Tumor Cell Migration”:

Tests used:
[1] = biological target: T1, human c-Met-Fc (c-Met ectodomain, IgG1-Fc fusion) (Homo sapiens, UniProt P08581 25-932); assay: competition; vs 32P-CLN3-T; Dotblot: nitrocellulose filter, 37 C (competition, 30 min); BLI: DPBS, 37 C, Protein A tips, 1:1 fit; ELISA: PBS/1% BSA; flow cytometry: PBS/1% BSA, 4 C, 30 min; conditions: protein: recombinant; tags: Fc (IgG1); chain copies: 2
[2] = biological target: T1, human c-Met-Fc (c-Met ectodomain, …); assay: competition; vs 32P-CLN64-T; Dotblot: nitrocellulose filter, 37 C (competition, 30 min); BLI: DPBS, 37 C, Protein A tips, 1:1 fit; ELISA: PBS/1% BSA; flow cytometry: PBS/1% BSA, 4 C, 30 min; conditions: protein: recombinant; tags: Fc (IgG1); chain copies: 2; 3'-biotin (CLN-F-B, cells)
[3] = biological target: T1, human c-Met-Fc (c-Met ectodomain, …); assay: filter binding (dotblot); Dotblot: nitrocellulose filter, 37 C (competition, 30 min); BLI: DPBS, 37 C, Protein A tips, 1:1 fit; ELISA: PBS/1% BSA; flow cytometry: PBS/1% BSA, 4 C, 30 min; conditions: protein: recombinant; tags: Fc (IgG1); chain copies: 2; label: 32P (dotblot)
[4] = biological target: T1, human c-Met-Fc (c-Met ectodomain, …); assay: competition ELISA; competes with immobilized HGF; Fig 2 legend gives 72 nM; Dotblot: nitrocellulose filter, 37 C (competition, 30 min); BLI: DPBS, 37 C, Protein A tips, 1:1 fit; ELISA: PBS/1% BSA; flow cytometry: PBS/1% BSA, 4 C, 30 min; conditions: protein: recombinant; tags: Fc (IgG1); chain copies: 2; label: 32P (dotblot)

T1 sequence (P08581 25-932): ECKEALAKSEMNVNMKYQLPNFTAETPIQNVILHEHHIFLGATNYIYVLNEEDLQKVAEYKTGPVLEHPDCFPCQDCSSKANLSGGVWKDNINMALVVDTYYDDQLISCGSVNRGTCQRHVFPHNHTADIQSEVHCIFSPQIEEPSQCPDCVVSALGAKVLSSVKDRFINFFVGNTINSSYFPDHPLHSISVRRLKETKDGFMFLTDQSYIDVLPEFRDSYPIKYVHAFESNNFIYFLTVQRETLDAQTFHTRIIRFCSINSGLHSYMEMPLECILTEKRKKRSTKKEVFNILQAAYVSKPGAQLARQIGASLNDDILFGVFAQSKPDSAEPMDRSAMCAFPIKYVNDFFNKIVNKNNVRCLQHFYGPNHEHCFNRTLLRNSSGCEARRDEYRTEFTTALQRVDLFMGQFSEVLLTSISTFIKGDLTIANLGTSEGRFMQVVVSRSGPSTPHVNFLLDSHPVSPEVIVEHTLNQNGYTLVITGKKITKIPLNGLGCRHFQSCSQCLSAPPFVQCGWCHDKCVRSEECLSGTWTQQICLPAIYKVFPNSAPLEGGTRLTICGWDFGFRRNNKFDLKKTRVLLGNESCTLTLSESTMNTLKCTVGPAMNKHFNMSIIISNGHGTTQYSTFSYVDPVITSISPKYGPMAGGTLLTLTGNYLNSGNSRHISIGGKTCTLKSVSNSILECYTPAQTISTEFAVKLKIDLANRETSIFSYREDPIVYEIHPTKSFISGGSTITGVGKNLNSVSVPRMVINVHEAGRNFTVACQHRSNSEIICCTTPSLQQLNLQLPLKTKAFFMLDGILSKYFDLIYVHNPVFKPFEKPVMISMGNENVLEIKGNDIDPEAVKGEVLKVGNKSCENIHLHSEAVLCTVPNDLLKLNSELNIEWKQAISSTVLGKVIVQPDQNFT

B1: CLN-X (ssDNA)
DNA: GGAGGGAAAAGTTATCAGGCATGCGCTAGCCGATCGAATCCCGTAGACATTCCGATCGACGATTAGTTTTGGAGTACTCGCTCC
B1: no binding [1].

B2: CLN-F (XNA)
DNA: GGAGGGAAAAGTTATCAGGCCGCTAGTTACCAGGTGTAGCTGACCAAGCGGATGTGTGTTGATTAGTTTTGGAGTACTCGCTCC
modifications: 2'-O-methyl purines and 2'-fluoro pyrimidines (mRfY)
B2: no binding [2].

B3: CLN3-T (SL1) (ssDNA)
DNA: GAAAAGTTATCAGGCTGGATGGTAGCTCGGTCGGGGTGGGTGGGTTGGCAAGTCTGATT
B3 was tested, and the Kd [3] was 0.1 nM and the IC50 [4] was 74 nM.
